Experimental data: patent US20130209365A1 (ACADEMIA SINICA, published 2013)

Biological target: T1, BSA control protein (bovine, UniProt P02769 25-607)
T1 construct: also called bovine serum albumin
Experiment: phage ELISA

T1 sequence (P02769 25-607 limits assumed): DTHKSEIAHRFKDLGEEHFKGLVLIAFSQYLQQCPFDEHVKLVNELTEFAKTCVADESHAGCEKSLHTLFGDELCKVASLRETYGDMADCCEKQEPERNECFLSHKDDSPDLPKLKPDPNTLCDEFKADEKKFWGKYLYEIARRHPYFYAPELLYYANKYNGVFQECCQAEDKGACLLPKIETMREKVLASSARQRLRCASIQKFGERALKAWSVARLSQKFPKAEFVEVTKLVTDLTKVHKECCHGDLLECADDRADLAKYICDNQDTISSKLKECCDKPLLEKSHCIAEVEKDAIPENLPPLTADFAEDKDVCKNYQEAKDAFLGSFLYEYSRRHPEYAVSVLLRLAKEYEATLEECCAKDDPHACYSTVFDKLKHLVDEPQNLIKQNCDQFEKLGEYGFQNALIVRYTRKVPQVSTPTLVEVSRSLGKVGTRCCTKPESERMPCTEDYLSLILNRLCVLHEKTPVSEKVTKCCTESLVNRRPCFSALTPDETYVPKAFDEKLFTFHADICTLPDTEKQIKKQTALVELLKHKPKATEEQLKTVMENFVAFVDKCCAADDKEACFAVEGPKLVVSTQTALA

Binder	binding result
phage-displayed anti-c-Met scFv PC1 (scFv, not shown: large carriers, tested as whole phage; also called anti-c-Met phage clone 1) scFv: MAQVQLQQSGPGLVKPSQTLSLTCDISGDSVSSNSAAWNWIRQSPSRGLEWLGRTYYRSRWYNEYAVSVRGRISINAETSKNQFSLQLNSVTPEDTAIYYCARAGFCSGGNCYPGSEDAFDLWGQGTMVTVGGGGSGGGGSGGGGSDVVMTQSPPSLSVSVGDRVTITCRASQDITNDLNWYQQKPGKAPQLLIYHASELETGVPSRFSGSGFGTDFTLTISSLQPADIATYYCQQYDDLPLTFGGGTKVEIKR	no binding
phage-displayed anti-c-Met scFv PC21 (scFv, not shown: large carriers, tested as whole phage; also called anti-c-Met phage clone 21) scFv: MAEVQLVESGPGLVKPSGTLSLKCDASAISMDSNYWWSWLRQPPGKGLEWIGEISHSGSTDYNPSLKSRATISIDKSKKQFFLRLKSVTAADTAVYYCAGLLSPLDAFDEWGQGTMVTVGGGGSGGGGSGGGGSDIQMTQSPSSLSASVGDRVTITCRASQRVATYLNWYQQKPGKAPNLLIYEASSLQSGVPSRFSGRRSGTDFTLTISSLQPEDFATYYCQQSYNTPYTFGQGTRLEIKR	no binding
